Here are results for 5 molecules from publication PMC4079599, “Mixed Disulfide Formation at Cys141 Leads to Apparent Unidirectional Attenuation of Aspergillus niger NADP-Glutamate Dehydrogenase Activity” (PLoS ONE, 2014).

Usually Km stands for the concentration of substrate that gives half-maximal velocity.

One data set relates to N. Description: purified protein. The conditions noted are these: forward reaction, Tris-HCl pH 8.0, 2-oxoglutarate and NADPH, room temperature.
The subject of another data set is T1, N[C@@H](CCC(=O)O)C(=O)O.
T1 construct: full-length cDNA in pET43.1(b) NdeI/HindIII, E. coli BL21(DE3), without a tag, purified
The data set is described as follows: purified protein. The conditions noted are these: reverse reaction, Tris-HCl pH 9.3, NADP+, room temperature. It counts as biochemical, Aspergillus niger.

The next data set concerns T2, O=C(O)CCC(=O)C(=O)O.
T2 construct: full-length cDNA in pET43.1(b) NdeI/HindIII, E. coli BL21(DE3), without a tag, purified
The data set is described as follows: purified protein. It counts as biochemical, Aspergillus niger. As to conditions: forward reaction, sigmoid saturation, Tris-HCl pH 8.0, ammonium chloride and NADPH, room temperature.

Data set [1] concerns the target T3, AnGDH (NADP-glutamate dehydrogenase from Aspergillus niger, recombinant) (Aspergillus niger, UniProt B6V7E4).
T3 construct: full-length cDNA in pET43.1(b) NdeI/HindIII, E. coli BL21(DE3), without a tag, purified
T3 sequence (B6V7E4 1-460): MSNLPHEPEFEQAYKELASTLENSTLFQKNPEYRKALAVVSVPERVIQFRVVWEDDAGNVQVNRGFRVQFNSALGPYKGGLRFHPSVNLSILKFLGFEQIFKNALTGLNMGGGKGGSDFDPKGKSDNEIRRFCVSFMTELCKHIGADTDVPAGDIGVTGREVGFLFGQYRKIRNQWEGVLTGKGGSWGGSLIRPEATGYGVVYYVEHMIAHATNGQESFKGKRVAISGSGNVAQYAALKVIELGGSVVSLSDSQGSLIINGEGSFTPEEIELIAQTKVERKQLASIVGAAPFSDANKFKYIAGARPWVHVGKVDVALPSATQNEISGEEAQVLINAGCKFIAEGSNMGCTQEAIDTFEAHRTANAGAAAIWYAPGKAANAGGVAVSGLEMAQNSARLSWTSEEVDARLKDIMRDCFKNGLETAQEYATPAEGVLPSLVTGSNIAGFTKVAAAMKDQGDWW
The data set is described as follows: time-dependent inactivation of forward activity, kapp versus concentration. The conditions noted are these: covalent, mixed disulfide at Cys141; incubation at 37°C; residual activity in standard forward assay pH 8.0. It counts as biochemical.

Data set [2] concerns the target T3, AnGDH (NADP-glutamate dehydrogenase from Aspergillus niger, recombinant). Description: residual forward activity after […] h incubation. It counts as biochemical. The conditions noted are these: covalent; saturated cystine (0.47 mM), 1 h, 37°C; standard forward assay pH 8.0.
Substrate in data set [3]: N
Description: purified protein. The conditions noted are these: forward reaction, Tris-HCl pH 8.0, 2-oxoglutarate and NADPH, room temperature. This is another data set of the same source.

Substrate in data set [4]: NC(=O)C1=CN([C@@H]2O[C@H](COP(=O)(O)OP(=O)(O)OC[C@H]3O[C@@H](n4cnc5c(N)ncnc54)[C@H](OP(=O)(O)O)[C@@H]3O)[C@@H](O)[C@H]2O)C=CC1
Description: purified protein. It counts as biochemical, Aspergillus niger. The conditions noted are these: forward reaction, Tris-HCl pH 8.0, 2-oxoglutarate and ammonium chloride, room temperature.

Substrate in data set [5]: NC(=O)c1ccc[n+]([C@@H]2O[C@H](COP(=O)(O)OP(=O)(O)OC[C@H]3O[C@@H](n4cnc5c(N)ncnc54)[C@H](OP(=O)(O)O)[C@@H]3O)[C@@H](O)[C@H]2O)c1
The data set is described as follows: purified protein. It counts as biochemical, Aspergillus niger. As to conditions: reverse reaction, Tris-HCl pH 9.3, L-glutamate, room temperature.

Substrate in data set [6]: N[C@@H](CCC(=O)O)C(=O)O
The data set is described as follows: purified protein. It counts as biochemical, Aspergillus niger. The conditions noted are these: reverse reaction, Tris-HCl pH 9.3, NADP+, room temperature.

Substrate in data set [7]: O=C(O)CCC(=O)C(=O)O
Description: purified protein. It counts as biochemical, Aspergillus niger. The conditions noted are these: forward reaction, sigmoid saturation, Tris-HCl pH 8.0, ammonium chloride and NADPH, room temperature.

Regarding “AnGDH (NADP-glutamate dehydrogenase from Aspergillus niger, recombinant) (Aspergillus niger; C141S)”, the Michaelis-Menten constant (Km) in the data set with N worked out at 1200 µM; in the data set with N[C@@H](CCC(=O)O)C(=O)O, 28600 µM. Further, the K0.5 in the data set on O=C(O)CCC(=O)C(=O)O stood at 4.00 mM.
Regarding `OCCSSCCO` [2-HED], the “second order inactivation rate constant” value in [1] amounted to 0.937 M⁻¹ s⁻¹.
On to “AnGDH (NADP-glutamate dehydrogenase from Aspergillus niger, recombinant) (Aspergillus niger; C415S)”, for which, in the data set on N[C@@H](CCC(=O)O)C(=O)O, the Km was determined as 36800 µM. Further, in the data set on O=C(O)CCC(=O)C(=O)O, the K0.5 came out at 15.50 mM.
With `N[C@@H](CSSC[C@H](N)C(=O)O)C(=O)O` [Cystine], in [2], the “Residual activity (%) / Forward” value turned out to be 8.3±1.9%.

B1: AnGDH (NADP-glutamate dehydrogenase from Aspergillus niger, recombinant) (Aspergillus niger) (protein)
chain: MSNLPHEPEFEQAYKELASTLENSTLFQKNPEYRKALAVVSVPERVIQFRVVWEDDAGNVQVNRGFRVQFNSALGPYKGGLRFHPSVNLSILKFLGFEQIFKNALTGLNMGGGKGGSDFDPKGKSDNEIRRFCVSFMTELCKHIGADTDVPAGDIGVTGREVGFLFGQYRKIRNQWEGVLTGKGGSWGGSLIRPEATGYGVVYYVEHMIAHATNGQESFKGKRVAISGSGNVAQYAALKVIELGGSVVSLSDSQGSLIINGEGSFTPEEIELIAQTKVERKQLASIVGAAPFSDANKFKYIAGARPWVHVGKVDVALPSATQNEISGEEAQVLINAGCKFIAEGSNMGCTQEAIDTFEAHRTANAGAAAIWYAPGKAANAGGVAVSGLEMAQNSARLSWTSEEVDARLKDIMRDCFKNGLETAQEYATPAEGVLPSLVTGSNIAGFTKVAAAMKDQGDWW
notes: full-length cDNA in pET43.1(b) NdeI/HindIII, E. coli BL21(DE3), without a tag, purified
For the molecule B1, the Michaelis-Menten constant (Km) in the data set “purified protein [3]” amounted to 1100 µM; in “purified protein [4]”, 23 µM; in the data set “purified protein [5]”, 28 µM; in the data set “purified protein [6]”, 30900 µM. Besides, the K0.5 in “purified protein [7]” stood at 5.70 mM.
